The EC50 is the concentration that produces a half-maximal response.

Assay [1] concerns the target T1, high affinity trimeric IL-2R (IL-2Rα, IL-2Rβ and IL-2Rγ) on HEK-Blue IL-2 cells (UniProt P01589 22-272; P14784 27-551; P31785 23-369).
T1 sequence (looked up) 1: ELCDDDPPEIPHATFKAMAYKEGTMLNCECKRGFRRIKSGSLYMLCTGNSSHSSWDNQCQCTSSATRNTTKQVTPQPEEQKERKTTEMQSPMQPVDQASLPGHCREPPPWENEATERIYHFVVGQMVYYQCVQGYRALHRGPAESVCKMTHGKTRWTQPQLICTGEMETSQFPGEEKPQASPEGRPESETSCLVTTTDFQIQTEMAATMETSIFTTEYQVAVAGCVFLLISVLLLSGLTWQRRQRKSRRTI
T1 sequence (looked up) 2: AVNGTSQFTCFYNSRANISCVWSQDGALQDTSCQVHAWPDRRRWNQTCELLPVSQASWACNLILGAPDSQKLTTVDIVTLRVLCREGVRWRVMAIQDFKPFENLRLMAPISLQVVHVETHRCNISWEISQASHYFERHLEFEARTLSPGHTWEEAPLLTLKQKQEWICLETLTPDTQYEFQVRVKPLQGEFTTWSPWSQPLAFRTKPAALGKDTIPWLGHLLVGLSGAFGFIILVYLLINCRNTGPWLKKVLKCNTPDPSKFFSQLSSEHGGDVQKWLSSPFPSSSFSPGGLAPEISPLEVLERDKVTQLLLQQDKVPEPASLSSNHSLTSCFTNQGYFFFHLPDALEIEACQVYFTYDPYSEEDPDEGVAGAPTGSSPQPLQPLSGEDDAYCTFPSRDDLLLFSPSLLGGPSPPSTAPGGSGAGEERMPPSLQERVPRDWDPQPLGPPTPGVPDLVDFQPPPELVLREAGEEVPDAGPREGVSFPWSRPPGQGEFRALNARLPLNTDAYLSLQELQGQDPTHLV
T1 sequence (looked up) 3: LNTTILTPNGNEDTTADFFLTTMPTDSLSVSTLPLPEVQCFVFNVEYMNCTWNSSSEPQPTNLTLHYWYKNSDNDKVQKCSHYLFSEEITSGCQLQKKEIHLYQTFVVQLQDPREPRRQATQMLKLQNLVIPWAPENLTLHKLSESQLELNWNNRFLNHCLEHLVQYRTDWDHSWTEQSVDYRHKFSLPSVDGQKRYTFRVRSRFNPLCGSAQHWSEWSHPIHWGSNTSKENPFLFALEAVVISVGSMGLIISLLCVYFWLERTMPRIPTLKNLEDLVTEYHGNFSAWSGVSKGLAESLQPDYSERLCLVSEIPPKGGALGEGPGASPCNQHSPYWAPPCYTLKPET
Briefly: cell-based or functional assay.

Assay [2] addresses T2, CD47 at the surface of Peak cells (human, UniProt Q08722 19-323).
T2 construct: whole, on cells; also called cell surface CD47
Briefly: flow cytometry, Peak cells, after MMP-9 treatment. On the procedure: Binding activity of antibody-cytokine/receptor fusions before and after cleavage was also evaluated by flow cytometry. Peak cells derived from HEK 293 which are human cells expressing CD47 were used to evaluate masking efficacy and binding recovery to CD47 by flow cytometry. Peak cells were diluted in cold FACS buffer (PBS, 2% BSA) to 1.2×10⁶ cells/mL. 3×10⁵ cells/well were added in a 96 well V-bottom plate. The plate was then centrifugated for 5 min at 1300 rpm, 4° C. Supernatants were removed and cells were washed twice using FACS buffer. A serial dilution of antibody-cytokine/receptor fusions previously digested with MMP-9 or not digested as described above was prepared in FACS buffer. An irrelevant antibody was included. Then, 150 μL of each diluted antibody were added in corresponding well and incubated for 30 min at 4° C. Cells were washed twice with FACS buffer and 100 μL of a mouse anti human Fc-PE conjugated secondary antibody were added and the plate was incubated for 20 min at 4° C. Cells were then washed twice with FACS buffer. Finally, 150 μL of SYTOX blue dead cell stain (ThermoFisher) diluted to 1/5000 in FACS buffer were added before detection by flow cytometry with Cytoflex (Beckman Coulter). Acquisition was performed with 10000 events for each well. Data were analyzed by FlowJo software.
On the technique in general: In flow cytometry, cells or beads pass a laser one at a time.

B1: Construct No 291 after cleavage by MMP-9 (antibody)
chain 1: DIQMTQSPSSLSASVGDRVTITCNVDQVIANWLNWYQQKPGKAPKLLIYAASSLQSGVPSRFSGSGSGTDFTLTISSLQPEDFATYYCQQMHPRAPKQFGQGTKVEIKRTVAAPSVFIFPPSDEQLKSGTASVVCLLNNFYPREAKVQWKVDNALQSGNSQESVTEQDSKDSTYSLSSTLTLSKADYEKHKVYACEVTHQGLSSPVTKSFNRGEC
chain 2: not shown
As to B1, the “EC50 after cleavage IL-2, HEK Blue IL-2 αβγ reporter assay” value (“EC50 … HEK Blue IL-2 αβγ reporter assay” for short) in assay [1] amounted to 0.01 nM. For the same molecule, in assay [2], a half-maximal effect (EC50) was put at 0.4 nM.

B2: Construct No 500 after cleavage by MMP-9 (antibody)
light: DIQMTQSPSSLSASVGDRVTITCNVDQVIANWLNWYQQKPGKAPKLLIYAASSLQSGVPSRFSGSGSGTDFTLTISSLQPEDFATYYCQQMHPRAPKQFGQGTKVEIKRTVAAPSVFIFPPSDEQLKSGTASVVCLLNNFYPREAKVQWKVDNALQSGNSQESVTEQDSKDSTYSLSSTLTLSKADYEKHKVYACEVTHQGLSSPVTKSFNRGEC
heavy: not shown
notes: MMP-9 digest of m21; the sample also holds the released IL-2, IL-2Rβ and IL-2Rα; also called n500 after cleavage; not shown: remnant of CM1 and linker after MMP-9 cleavage
Turning to B2, the “EC50 … HEK Blue IL-2 αβγ reporter assay” value in assay [1] amounted to 0.02 nM. The molecule further showed an EC50 in assay [2] of 0.8 nM.

B3: Construct No 450 after cleavage by MMP-9 (antibody)
light: DIQMTQSPSSLSASVGDRVTITCNVDQVIANWLNWYQQKPGKAPKLLIYAASSLQSGVPSRFSGSGSGTDFTLTISSLQPEDFATYYCQQMHPRAPKQFGQGTKVEIKRTVAAPSVFIFPPSDEQLKSGTASVVCLLNNFYPREAKVQWKVDNALQSGNSQESVTEQDSKDSTYSLSSTLTLSKADYEKHKVYACEVTHQGLSSPVTKSFNRGEC
heavy: not shown
notes: MMP-9 digest of m16; the sample also holds the released IL-2, IL-2Rα and IL-2Rβ; also called n450 after cleavage; not shown: remnant of CM1 and linker after MMP-9 cleavage
Take B3: the “EC50 … HEK Blue IL-2 αβγ reporter assay” value in assay [1] was 0.01 nM. In addition, the EC50 in assay [2] worked out at 0.4 nM.

B4: Construct No 281 after cleavage by MMP-9 (antibody)
light: DIQMTQSPSSLSASVGDRVTITCNVDQVIANWLNWYQQKPGKAPKLLIYAASSLQSGVPSRFSGSGSGTDFTLTISSLQPEDFATYYCQQMHPRAPKQFGQGTKVEIKRTVAAPSVFIFPPSDEQLKSGTASVVCLLNNFYPREAKVQWKVDNALQSGNSQESVTEQDSKDSTYSLSSTLTLSKADYEKHKVYACEVTHQGLSSPVTKSFNRGEC
heavy: not shown
notes: MMP-9 digest of m13; the sample also holds the released IL-2; also called n281 after cleavage; not shown: remnant of CM1 and linker after MMP-9 cleavage
Regarding B4, the “EC50 … HEK Blue IL-2 αβγ reporter assay” value in assay [1] came to 0.01 nM. The same molecule displayed an EC50 in assay [2] of 0.9 nM.

B5: Construct No 471 after cleavage by MMP-9 (antibody)
light: DIQMTQSPSSLSASVGDRVTITCNVDQVIANWLNWYQQKPGKAPKLLIYAASSLQSGVPSRFSGSGSGTDFTLTISSLQPEDFATYYCQQMHPRAPKQFGQGTKVEIKRTVAAPSVFIFPPSDEQLKSGTASVVCLLNNFYPREAKVQWKVDNALQSGNSQESVTEQDSKDSTYSLSSTLTLSKADYEKHKVYACEVTHQGLSSPVTKSFNRGEC
heavy: not shown
notes: MMP-9 digest of m17; the sample also holds the released IL-2, IL-2Rα and IL-2Rβ; also called n471 after cleavage; not shown: remnant of CM1 and linker after MMP-9 cleavage
Take B5: in assay [1], the “EC50 … HEK Blue IL-2 αβγ reporter assay” value amounted to 0.01 nM. The EC50 in assay [2] stood at 0.3 nM.

B6: Construct No 490 after cleavage by MMP-9 (antibody)
light: DIQMTQSPSSLSASVGDRVTITCNVDQVIANWLNWYQQKPGKAPKLLIYAASSLQSGVPSRFSGSGSGTDFTLTISSLQPEDFATYYCQQMHPRAPKQFGQGTKVEIKRTVAAPSVFIFPPSDEQLKSGTASVVCLLNNFYPREAKVQWKVDNALQSGNSQESVTEQDSKDSTYSLSSTLTLSKADYEKHKVYACEVTHQGLSSPVTKSFNRGEC
heavy: not shown
notes: MMP-9 digest of m20; the sample also holds the released IL-2, IL-2Rα (to 185) and IL-2Rβ; also called n490 after cleavage; not shown: remnant of CM1 and linker after MMP-9 cleavage
With B6, the “EC50 … HEK Blue IL-2 αβγ reporter assay” value in assay [1] amounted to 0.01 nM. The EC50 in assay [2] was determined as 0.5 nM.

The values are drawn from US20240254223A1 (NOVIMMUNE, published 2024).
